Substrate in the data set: CN(C)CCOc1ccc(CC(NC(=O)c2ccccc2)C(=O)O)cc1
The data set is described as follows: cells, lysate or membranes named. Particulars: other: hOAT3-HEK293 cells, Eadie–Hofstee plot, 2 to 1000 µM, 5 min; pH 7.4.

Procedure: The hOAT1-HEK293, hOAT3-HEK293 and mock cells were cultured in Dulbecco modified Eagle medium (DMEM) containing 10% fetal bovine serum (FBS) and 1% penicillin/streptomycin in an atmosphere of 5% CO2 air at 37 °C. The HEK293 cells were plated on 24-well plates at a density of 5 × 10^5 cells/well. […] Uptake assay was initiated by adding 1 mL of the transporter buffer containing Y101, M8, ETV or probe substrate. Following incubation with gentle shaking, the uptake was terminated at designated time by removing the transporter buffer and washing cells three times with 1 mL of ice-cold HBSS. Next, substrates of Y101, M8, ETV, PAH and ES in cell monolayer were released by lysing the cells with 0.3 mL of 0.1% Triton X-100 for 2 h and determined by liquid chromatography–tandem mass spectrometry (LC–MS/MS). In the time-course uptake assay, Y101 (2.0 µM) and M8 (10 µM) in the presence or absence of PRO (100 µM) were measured in hOAT1-HEK293, hOAT3-HEK293 and mock cells. The concentration-dependent uptake of M8 was determined in hOAT3-HEK293 cells, and incubation time (5 min) was optimized. […] The uptake of ETV (10 µM) with or without Y101 or M8 was also measured in hOAT1-HEK293 and hOAT3-HEK293 cells, respectively. […] Protein concentrations were measured by the bicinchoninic acid procedure (Solarbio, Beijing, China) using bovine serum albumin as the standard. […]

B1: hOAT3 (Homo sapiens) (protein)
chain: MTFSEILDRVGSMGHFQFLHVAILGLPILNMANHNLLQIFTAATPVHHCRPPHNASTGPWVLPMGPNGKPERCLRFVHPPNASLPNDTQRAMEPCLDGWVYNSTKDSIVTEWDLVCNSNKLKEMAQSIFMAGILIGGLVLGDLSDRFGRRPILTCSYLLLAASGSGAAFSPTFPIYMVFRFLCGFGISGITLSTVILNVEWVPTRMRAIMSTALGYCYTFGQFILPGLAYAIPQWRWLQLTVSIPFFVFFLSSWWTPESIRWLVLSGKSSKALKILRRVAVFNGKKEEGERLSLEELKLNLQKEISLAKAKYTASDLFRIPMLRRMTFCLSLAWFATGFAYYSLAMGVEEFGVNLYILQIIFGGVDVPAKFITILSLSYLGRHTTQAAALLLAGGAILALTFVPLDLQTVRTVLAVFGKGCLSSSFSCLFLYTSELYPTVIRQTGMGVSNLWTRVGSMVSPLVKITGEVQPFIPNIIYGITALLGGSAALFLPETLNQPLPETIEDLENWSLRAKKPKQEPEVEKASQRIPLQPHGPGLGSS
One may read the Km as the concentration of substrate that gives half-maximal velocity. For B1, the Km is 367 µM and the Vmax was found to be 414 pmol/min/mg protein.

Values taken from PMC9967645, “OAT3 Participates in Drug–Drug Interaction between Bentysrepinine and Entecavir through Interactions with M8—A Metabolite of Bentysrepinine—In Rats and Humans In Vitro” (Molecules, 2023).
